Measured values published in patent US20240317884A1, “METHOD FOR ALLOWING IMMUNE CELLS INFILTRATION IN TUMORS” (Alethia Biotherapeutics Inc., priority 2021, published 2024).
Values joined by “and” are separate entries in the source; they are usually repeats but may differ in a detail not shown here. Identical values can stand only once. “Also recorded” adds a separate entry of the source.

How the values were obtained:
Type in all cases: in vivo, human
[1] = Phase I: plasma pharmacokinetics (non-compartmental analysis); settings: for AUC0-t / Cmax / Thalf: mean; for AUC0-t / Cmax / Thalf / Tmax: plasma, first dose of cycle; for Tmax: median
Excerpt: Plasma PK parameters for AB-16B5 were derived from the concentration-time profiles following the first dose of Cycle 1 and the first dose of Cycle 2 using a non-compartmental analysis (NCA) with Phoenix WinNonlin.

tumor biopsies = assay: Phase I: necrosis in tumor biopsies; settings: for Necrosis Pre-Treatment: baseline
Protocol: Tumor biopsies were collected during the standard dose escalation to investigate the presence of AB-16B5 within the tumor. A total of 4 pre-treatment and 5 post-treatment tumor biopsies were suitable for analysis. These post-treatment tumor biopsies were collected following dosing on Cycle 2 Day 15 (between Cycle 2 Day 15 and Cycle 2 Day 18). The biopsy sites were liver (n=2), lymph node (n=2), bladder, skin and vulva.
Immunohistochemistry studies were conducted on paired tumor biopsies to determine if the treatment with AB-16B5 was associated with a reacquisition of an epithelial phenotype.

[2] = Phase I study AB-16B5-101: safety profile

AB-16B5: humanized IgG2 monoclonal antibody targeting sCLU; light chain SEQ ID NO:11, heavy chain SEQ ID NO:12
AUC0-t ([1]; Cycle 1, 1.5 mg/kg (N = 1)): 230,321 ng*h/mL | Cmax ([1]; Cycle 1, 1.5 mg/kg (N = 1)): 17,958 ng/mL | Thalf ([1]; Cycle 1, 1.5 mg/kg (N = 1)): 9.35 h | Tmax ([1]; Cycle 1, 1.5 mg/kg (N = 1)): 1.17 h | AUC0-t ([1]; Cycle 1, 3.0 mg/kg (N = 1)): 645,602 ng*h/mL | Cmax ([1]; Cycle 1, 3.0 mg/kg (N = 1)): 50,736 ng/mL | Thalf ([1]; Cycle 1, 3.0 mg/kg (N = 1)): 7.39 h | Tmax ([1]; Cycle 1, 3.0 mg/kg (N = 1)): 1.08 h | AUC0-t ([1]; Cycle 1, 6.0 mg/kg (N = 3)): 1,357,773 ng*h/mL | Cmax ([1]; Cycle 1, 6.0 mg/kg (N = 3)): 117,663 ng/mL | Thalf ([1]; Cycle 1, 6.0 mg/kg (N = 3)): 6.99 h | Tmax ([1]; Cycle 1, 6.0 mg/kg (N = 3)): 1.00 h | AUC0-t ([1]; Cycle 1, 9.0 mg/kg (N = 3)): 2,083,091 ng*h/mL | Cmax ([1]; Cycle 1, 9.0 mg/kg (N = 3)): 162,103 ng/mL | Thalf ([1]; Cycle 1, 9.0 mg/kg (N = 3)): 10.78 h | Tmax ([1]; Cycle 1, 9.0 mg/kg (N = 3)): 2.00 h | AUC0-t ([1]; Cycle 1, 12.0 mg/kg (N = 7)): 4,045,786 ng*h/mL | Cmax ([1]; Cycle 1, 12.0 mg/kg (N = 7)): 256,977 ng/mL | Thalf ([1]; Cycle 1, 12.0 mg/kg (N = 7)): 11.99 h | Tmax ([1]; Cycle 1, 12.0 mg/kg (N = 7)): 1.12 h | AUC0-t ([1]; Cycle 2, 1.5 mg/kg (N = 1)): 188,584 ng*h/mL | Cmax ([1]; Cycle 2, 1.5 mg/kg (N = 1)): 15,662 ng/mL | Thalf ([1]; Cycle 2, 1.5 mg/kg (N = 1)): 7.97 h | Tmax ([1]; Cycle 2, 1.5 mg/kg (N = 1)): 1.00 h | AUC0-t ([1]; Cycle 2, 3.0 mg/kg (N = 1)): 688,934 ng*h/mL | Cmax ([1]; Cycle 2, 3.0 mg/kg (N = 1)): 61,466 ng/mL | Thalf ([1]; Cycle 2, 3.0 mg/kg (N = 1)): 6.82 h | Tmax ([1]; Cycle 2, 3.0 mg/kg (N = 1)): 1.05 h | AUC0-t ([1]; Cycle 2, 6.0 mg/kg (N = 3)): 1,351,156 ng*h/mL | Cmax ([1]; Cycle 2, 6.0 mg/kg (N = 3)): 120,466 ng/mL | Thalf ([1]; Cycle 2, 6.0 mg/kg (N = 3)): 7.70 h | Tmax ([1]; Cycle 2, 6.0 mg/kg (N = 3)): 1.03 h | AUC0-t ([1]; Cycle 2, 9.0 mg/kg (N = 3)): 2,459,988 ng*h/mL | Cmax ([1]; Cycle 2, 9.0 mg/kg (N = 3)): 163,840 ng/mL | Thalf ([1]; Cycle 2, 9.0 mg/kg (N = 3)): 13.75 h | Tmax ([1]; Cycle 2, 9.0 mg/kg (N = 3)): 1.08 h | AUC0-t ([1]; Cycle 2, 12.0 mg/kg (N = 7)): 4,147,243 ng*h/mL | Cmax ([1]; Cycle 2, 12.0 mg/kg (N = 7)): 230,268 ng/mL | Thalf ([1]; Cycle 2, 12.0 mg/kg (N = 7)): 21.04 h | Tmax ([1]; Cycle 2, 12.0 mg/kg (N = 7)): 1.04 h | increase of mean Cmax and AUC0-t (systemic exposure) with the dose ([1]; dose range of 3.0 to 12.0 mg/kg, Cycle 1 and Cycle 2): dose proportional | accumulation of AB-16B5 between Cycle 1 and Cycle 2 ([1]; weekly IV infusion): No significant accumulation | Necrosis Post-Treatment (tumor biopsies; Subject 006, Breast, biopsy site Skin, 9.0 mg/kg): 10% | Necrosis Pre-Treatment (tumor biopsies; Subject 006, Breast, biopsy site Skin): 0% | Necrosis Post-Treatment (tumor biopsies; Subject 007, Gastric, biopsy site Gastric, 9.0 mg/kg): 0% | Necrosis Pre-Treatment (tumor biopsies; Subject 007, Gastric, biopsy site Gastric): 0% | Necrosis Post-Treatment (tumor biopsies; Subject 012, Breast, biopsy site Skin, 12.0 mg/kg): 5% | Necrosis Pre-Treatment (tumor biopsies; Subject 012, Breast, biopsy site Skin): 0% | Necrosis Post-Treatment (tumor biopsies; Subject 013, Prostate, biopsy site Bladder, 12.0 mg/kg): 10% | Necrosis Pre-Treatment (tumor biopsies; Subject 013, Prostate, biopsy site Bladder): 0% | subjects reporting SAEs ([2]; 5 of 15 subjects, all SAEs considered unrelated to AB-16B5): 33% | AEs reported, total ([2]; 15 subjects, all causalities): 167 | dose at which weekly infusion was safe and well tolerated ([2]; 60-minute IV weekly infusion): up to 12 mg/kg | dose-limiting toxicity ([2]; 60-minute IV weekly infusion, 1.5 to 12.0 mg/kg, 15 subjects): No dose-limiting toxicity; also recorded: No dose-limiting toxicities | deaths reported in the study ([2]; Subjects 004 and 014, associated with progression of the disease): Two | number of SAEs ([2]; all considered unrelated to AB-16B5): 6 and 5 | AEs of Grade 3 to 5 ([2]; reported by 8 subjects): 12 | subjects who discontinued the study due to an adverse event ([2]; two subjects (004, 011)): 13%
